The source of these data is publication doi:10.1101/492876.

Experiment [1] concerns the target elongation factor thermo-unstable (EF-Tu), hexahistidine-tagged (E. coli) (UniProt P0CE47). The experiment can be described thus: SEC.
The target in experiment [2] is preformed oligomeric EF-Tu (^OligoEF-Tu) (E. coli) (UniProt P0CE47). The experiment can be described thus: ITC.

As for “reduced form of Hsp33 (^RHsp33) (from UniProt P0A6Y5 1-292) (natural protein)”, the stoichiometry N (in general, the number of molecules, sites or subunits per partner or assembly) in experiment [1] stood at 1. In experiment [2], the Kd (as a rule, the concentration at which binding is half-saturated) came to 0.58 µM; the dH is -18.8 kcal/mol; the stoichiometry N was 2.37.

As to “elongation factor thermo-unstable (EF-Tu), hexahistidine-tagged (from UniProt P0CE47 1-394) (natural protein)”, the stoichiometry N in experiment [1] was found to be 2.
